Biological target: SUMO fusion of the glycophorin A TM domain
Assay: SEC

SUMO fusion of the glycophorin A TM domain (domain or fragment)
stoichiometry N: 2
